# Data: patent US20170355757A1 (Regeneron, published 2017)
# T1: monkey C5-mmh (monkey, UniProt P01031 19-1676 (human entry), limits assumed)
# T1 construct: recombinant, with C-terminal myc-myc-hexahistidine tag
# T1 chain: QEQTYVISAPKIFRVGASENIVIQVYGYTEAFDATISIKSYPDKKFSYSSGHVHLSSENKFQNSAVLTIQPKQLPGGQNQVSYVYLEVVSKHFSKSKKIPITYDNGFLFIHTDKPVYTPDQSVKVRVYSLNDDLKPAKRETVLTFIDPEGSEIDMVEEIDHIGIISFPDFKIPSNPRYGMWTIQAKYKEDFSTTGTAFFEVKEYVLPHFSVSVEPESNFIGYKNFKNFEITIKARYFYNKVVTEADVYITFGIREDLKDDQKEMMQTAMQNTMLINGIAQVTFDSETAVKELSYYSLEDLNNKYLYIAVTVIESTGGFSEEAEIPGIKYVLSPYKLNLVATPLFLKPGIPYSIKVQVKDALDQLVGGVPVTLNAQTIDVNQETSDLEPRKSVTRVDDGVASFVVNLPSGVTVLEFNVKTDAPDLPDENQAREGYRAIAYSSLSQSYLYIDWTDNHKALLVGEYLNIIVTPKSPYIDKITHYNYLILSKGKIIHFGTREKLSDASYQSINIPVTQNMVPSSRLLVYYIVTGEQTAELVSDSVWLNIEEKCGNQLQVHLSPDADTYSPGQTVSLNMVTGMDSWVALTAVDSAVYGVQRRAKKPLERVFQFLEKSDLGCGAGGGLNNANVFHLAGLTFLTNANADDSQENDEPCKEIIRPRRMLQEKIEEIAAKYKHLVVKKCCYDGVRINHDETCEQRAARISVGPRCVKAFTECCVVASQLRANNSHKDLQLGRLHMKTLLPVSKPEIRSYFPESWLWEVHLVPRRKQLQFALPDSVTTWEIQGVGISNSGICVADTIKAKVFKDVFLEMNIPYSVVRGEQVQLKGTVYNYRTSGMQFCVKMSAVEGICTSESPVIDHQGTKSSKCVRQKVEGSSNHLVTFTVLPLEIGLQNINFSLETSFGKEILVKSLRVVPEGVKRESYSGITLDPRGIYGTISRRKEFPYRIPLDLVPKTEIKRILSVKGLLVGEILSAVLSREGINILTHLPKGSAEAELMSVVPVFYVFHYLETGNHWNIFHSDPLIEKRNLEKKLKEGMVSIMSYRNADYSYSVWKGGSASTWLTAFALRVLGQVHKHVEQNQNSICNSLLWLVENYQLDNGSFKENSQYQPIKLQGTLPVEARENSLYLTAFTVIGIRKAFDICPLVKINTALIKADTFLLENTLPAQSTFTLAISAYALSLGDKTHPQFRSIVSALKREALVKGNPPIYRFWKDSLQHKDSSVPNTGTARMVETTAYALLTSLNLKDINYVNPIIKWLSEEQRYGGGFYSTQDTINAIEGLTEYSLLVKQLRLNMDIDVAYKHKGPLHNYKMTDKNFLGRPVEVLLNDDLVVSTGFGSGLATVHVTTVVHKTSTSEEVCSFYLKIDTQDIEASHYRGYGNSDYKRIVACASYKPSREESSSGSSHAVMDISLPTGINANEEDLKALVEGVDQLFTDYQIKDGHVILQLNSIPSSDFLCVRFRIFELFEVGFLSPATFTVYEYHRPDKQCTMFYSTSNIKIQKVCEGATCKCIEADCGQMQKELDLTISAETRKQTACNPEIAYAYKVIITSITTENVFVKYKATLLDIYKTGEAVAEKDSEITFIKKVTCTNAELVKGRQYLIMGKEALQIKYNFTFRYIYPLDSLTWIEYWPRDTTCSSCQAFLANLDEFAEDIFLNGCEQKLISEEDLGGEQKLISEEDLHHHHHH
# Key:
# human C5 [1] = molecular target: T2, human C5 (human, UniProt P01031 19-1676); assay: cell-based or functional assay
# African green monkey C5 [2] = molecular target: T3, African green monkey C5 (African green monkey); assay: cell-based or functional assay
# human C5 R885H-mmh [3] = molecular target: T4, human C5 R885H-mmh (human, UniProt P01031 19-1676); assay: cell-based or functional assay
# human C5 R885C-mmh [4] = molecular target: T5, human C5 R885C-mmh (human, UniProt P01031 19-1676); assay: cell-based or functional assay
# human C5 [5] = molecular target: T2, human C5; assay: cell-based or functional assay; remark: listed apart in the source
# human C5 [6] = molecular target: T2, human C5; assay: SPR (Biacore), mAb captured, dissociation of human C5 at pH7.4 vs pH6.0, 37°C
# In short: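 Anti-C5 mAbs (human IgG4 Fc) captured on an amine-coupled mouse anti-human Fc surface; recombinant C5 dissociation followed by Biacore T200 in PBS-T (0.01M phosphate, 0.15M NaCl, 0.05% Tween-20) at pH7.4 or pH6.0. Dissociative half-life (t½) calculated from kd.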
# human C5 [7] = molecular target: T2, human C5; assay: cell-based or functional assay; remark: listed apart in the source
# African green monkey C5 [8] = molecular target: T3, African green monkey C5; assay: cell-based or functional assay; remark: listed apart in the source
# human C5 R885H-mmh [9] = molecular target: T4, human C5 R885H-mmh; assay: cell-based or functional assay; remark: listed apart in the source
# human C5 R885C-mmh [10] = molecular target: T5, human C5 R885C-mmh; assay: cell-based or functional assay; remark: listed apart in the source
# human C5 [11] = molecular target: T2, human C5; assay: cell-based or functional assay; remark: listed apart in the source
# African green monkey C5 [12] = molecular target: T3, African green monkey C5; assay: cell-based or functional assay; remark: listed apart in the source
# Cynomolgus monkey C5 = Cynomolgus monkey C5 (cynomolgus monkey, UniProt A0A2K5U1T1 19-1676); assay: cell-based or functional assay
# monkey C5-mmh [13] = molecular target: T1, monkey C5-mmh; assay: SPR (Biacore), mAb captured, dissociation of monkey C5 at pH7.4 vs pH6.0, 25°C
# monkey C5-mmh [14] = molecular target: T1, monkey C5-mmh; assay: SPR (Biacore), mAb captured, dissociation of monkey C5 at pH7.4 vs pH6.0, 37°C
Binder,"IC50, inhibition of CDC of Daudi cells, 1.66% African Green monkey serum, 10 nM anti-CD20 antibody (African green monkey C5 [2])","IC50, inhibition of CDC of Daudi cells, C5 depleted human serum and 6.6 nM C5 Variant R885H, 7 nM anti-CD20 antibody (human C5 R885H-mmh [3])",t½ Ratio pH7.4/pH6.0 (human C5 [6]),"IC50, inhibition of CDC of Daudi cells, 1.66% human serum (human C5 [7])","IC50, inhibition of CDC of Daudi cells, 1.66% African Green monkey serum (African green monkey C5 [8])","IC50, inhibition of CDC of Daudi cells, C5 depleted human serum and 6.6 nM C5 Variant R885H (human C5 R885H-mmh [9])","IC50, inhibition of CDC of Daudi cells, C5 depleted human serum and 6.6 nM C5 Variant R885C (human C5 R885C-mmh [10])",t½ Ratio pH7.4/pH6.0 (monkey C5-mmh [13]),t½ Ratio pH7.4/pH6.0 (monkey C5-mmh [14]),"Human AP % Max Inhibition, hemolysis assay, NHS (human C5 [11])","Human AP IC50, hemolysis assay, NHS (human C5 [11])","Human CP % Max Inhibition, hemolysis assay, NHS (human C5 [11])","Human CP IC50, hemolysis assay, NHS (human C5 [11])","AGM AP % Max Inhibition, hemolysis assay, 5% serum (African green monkey C5 [12])","AGM CP % Max Inhibition, hemolysis assay, 5% serum (African green monkey C5 [12])","AGM Serum AP IC50, hemolysis assay, 5% serum (African green monkey C5 [12])","Cyno AP % Max Inhibition, hemolysis assay, 5% serum (Cynomolgus monkey C5)","Cyno CP % Max Inhibition, hemolysis assay, 5% serum (Cynomolgus monkey C5)","Cyno Serum AP IC50, hemolysis assay, 5% serum (Cynomolgus monkey C5)","Cyno Serum CP IC50, hemolysis assay, 5% serum (Cynomolgus monkey C5)",other results
"H4H12166P2 (antibody, human IgG4, V domains shown, histidine-mutated CDR variant of H4H12166P; human IgG4 (S108P)) VH: QVQLQESGPGLVKPSETLSLTCTVSGDSVSSSYWTWIRQPPGKGLEWIGYIYYSGSSNYNPSLKSRATISVDTSKNQFSLKLSSVTAADTAVYYCAREGNVDTTMIFDYWGQGTLVTVSS VL: AIQMTQSPSSLSASVGDRVTITCRASQGIRNDLGWYQQKPGKAPKLLIYAASSLQSGVPSRFAGRGSGTDFTLTISSLQPEDFATYYCHQDFNYPWTFGQGTKVEIK",9.7 nM,1.7 nM,7.3,,,,,,,,,,,,,,,,,,"IC50, inhibition of CDC of Daudi cells, 1.66% human serum, 2 nM anti-CD20 antibody (human C5 [1]): 3.7 nM; IC50, inhibition of CDC of Daudi cells, C5 depleted human serum and 6.6 nM C5 Variant R885C, 30 nM anti-CD20 antibody (human C5 R885C-mmh [4]): 1.2 nM; Human AP % Max Inhibition, hemolysis assay, 5% NHS (human C5 [5]): 81.3%; Human AP IC50, hemolysis assay, 5% NHS (human C5 [5]): 47.8 nM; Human CP % Max Inhibition, hemolysis assay, 5% NHS (human C5 [5]): 98.2%; Human CP IC50, hemolysis assay, 5% NHS (human C5 [5]): 15.9 nM"
"H4H12164P (antibody, human IgG4, V domains shown, H4H: human IgG4 Fc with S108P hinge mutation) VH: EVQLVESGGGLVRSGGSLRLSCAASGFTFNRYAMTWVRQAPGKGLEWVSAISGSGSSTYYTDSVKGRFTISRDNSKNSVDLQMHSLRVEDTAIYYCARGTTVTTGYGMDVWGQGTTVTVSS VL: DIQMTQSPSSLSASVGDRVTFTCQASQDITNSLNWYQQKPGRAPKLLIYDASYLKAGVPSRFSGSGSGTDFTFTISSLQPEDIATYYCQQYDDLPYTFGQGTKLEIK",,,≤ 0.1,2.4 nM,5.8 nM,1.8 nM,0.82 nM,2.9,1.1,69.7%,14.5 nM,95.9%,2.1 nM,15.6%,85.8%,178 nM,98.7%,94.7%,9.1 nM,19.6 nM,"AGM Serum CP IC50, hemolysis assay, 5% serum (African green monkey C5 [12]): 247 nM"

# More lines, main results first:
"IC50, inhibition of CDC of Daudi cells, 1.66% African Green monkey serum, 10 nM anti-CD20 antibody (African green monkey C5 [2])","IC50, inhibition of CDC of Daudi cells, C5 depleted human serum and 6.6 nM C5 Variant R885H, 7 nM anti-CD20 antibody (human C5 R885H-mmh [3])",t½ Ratio pH7.4/pH6.0 (human C5 [6]),"IC50, inhibition of CDC of Daudi cells, 1.66% human serum (human C5 [7])","IC50, inhibition of CDC of Daudi cells, 1.66% African Green monkey serum (African green monkey C5 [8])","IC50, inhibition of CDC of Daudi cells, C5 depleted human serum and 6.6 nM C5 Variant R885H (human C5 R885H-mmh [9])","IC50, inhibition of CDC of Daudi cells, C5 depleted human serum and 6.6 nM C5 Variant R885C (human C5 R885C-mmh [10])",t½ Ratio pH7.4/pH6.0 (monkey C5-mmh [13]),t½ Ratio pH7.4/pH6.0 (monkey C5-mmh [14]),Binder,"Human AP % Max Inhibition, hemolysis assay, NHS (human C5 [11])","Human AP IC50, hemolysis assay, NHS (human C5 [11])","Human CP % Max Inhibition, hemolysis assay, NHS (human C5 [11])","Human CP IC50, hemolysis assay, NHS (human C5 [11])","AGM AP % Max Inhibition, hemolysis assay, 5% serum (African green monkey C5 [12])","AGM CP % Max Inhibition, hemolysis assay, 5% serum (African green monkey C5 [12])","AGM Serum AP IC50, hemolysis assay, 5% serum (African green monkey C5 [12])","Cyno AP % Max Inhibition, hemolysis assay, 5% serum (Cynomolgus monkey C5)","Cyno CP % Max Inhibition, hemolysis assay, 5% serum (Cynomolgus monkey C5)","Cyno Serum AP IC50, hemolysis assay, 5% serum (Cynomolgus monkey C5)","Cyno Serum CP IC50, hemolysis assay, 5% serum (Cynomolgus monkey C5)",other results
> 30 nM,2.9 nM,,,,,,,,"H4H12166P3 (antibody, human IgG4, V domains shown) VH: QVQLQESGPGLVKPSETLSLTCTVSGDSVSSSYWTWIRQPPGKGLEWIGYIYYSGSSNYNPSLKSRATISVDTSKNQFSLKLSSVTAADTAVYYCAREHNVDTTMIFDYWGQGTLVTVSS VL: AIQMTQSPSSLSASVGDRVTITCRASQGIRNDLGWYQQKPGKAPKLLIYAASSLQSGVPSRFAGRGSGTDFTLTISSLQPEDFATYYCLQDFNYPWTFGQGTKVEIK",,,,,,,,,,,,"Max % Inhibition of CDC of Daudi cells, 1.66% African Green monkey serum, 10 nM anti-CD20 antibody (African green monkey C5 [2]): 64%; IC50, inhibition of CDC of Daudi cells, C5 depleted human serum and 6.6 nM C5 Variant R885C, 30 nM anti-CD20 antibody (human C5 R885C-mmh [4]): 1.7 nM"
,,3.7,1.9 nM,3.3 nM,1.6 nM,0.65 nM,2.1,4.7,"H4H12171P (antibody, human IgG4, V domains shown, H4H: human IgG4 Fc with S108P hinge mutation) VH: EVQLVESGGGVVRPGGSLRLSCAASGFTFDEYGMTWVRQVPGKGLEWVSGITWNGGFTDYTDSVKGRFTSSRDNAKNSLYLQMNSLRAEDTALYYCARDGYSSSWGAYDIWGQGTMVTVSS VL: DIQMTQSPSSLSASVGDRVTITCRASQSISTYLNWYQQKPGKAPKLLIYAASSLQSGVPLRFSGSGSGTDFTLTISSLQPEDFASYFCQQSYSTPYTFGQGTKLEIK",42%,15.5 nM,94.9%,2.33 nM,69.7%,17.8%,23.3 nM,98.8%,92.9%,7.2 nM,8.7 nM,
,,0.9,2.2 nM,5.2 nM,4.2 nM,> 20 nM,3.6,0.4,"H4H12175P (antibody, human IgG4, V domains shown, H4H: human IgG4 Fc with S108P hinge mutation) VH: EVQLVESGGGVVQPGGSLRLSCAASGFTFNDYAMHWVRQAPGKGLEWVSLISGDGGNTYYADSVKGRLTISRDNSKNSLYLQMNSLRTEDTALYYCAKDKGWNFGYFDLWGRGTLVTVSS VL: DIQMTQSPSSLSTSVGDRVTITCRASQNIDTYLNWYQQKPGKAPKLLIYDASSLQSGVPSRFSGSGSGTDFTLTITSLQPEDFATYYCQQNDNILHPLTFGGGTKVEIK",80.2%,20 nM,98%,2.36 nM,17.4%,84.5%,98.5 nM,98.1%,96.7%,8.05 nM,10.9 nM,"AGM Serum CP IC50, hemolysis assay, 5% serum (African green monkey C5 [12]): 118 nM"
